± gives the standard deviation of the averaged measurements.
What follows are sequences tested on ATP (assay: switch fluorescence ratio, 500 uM ATP over buffer (Cy3 cluster intensity, sum of 5 cycles each) (fold (ratio)); higher = stronger signal-on switching upon ATP binding; sequences stand for … in TCGTCGGCAGCGTCAGATGTGTATAAGAGACAGTTTTTTTTTTTTTTTTTTTTTTTTT…TC). Conditions: aptamer strand: ATP DNA aptamer (quencher-CACCTGGGGGAGTATTGCGGAGGAAGG + anchor), 100 nM annealed; ATP concentration: 500 uM.
Summary of the method: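 The fluorescence ratio divides summed target-cycle Cy3 intensity by summed buffer-cycle Cy3 intensity for each cluster and is averaged per switch-domain sequence. Cy3-labelled switching-strand clusters on a modified Illumina MiSeq flow-cell were annealed to 100 nM quencher-labelled ATP aptamer, then imaged in selection buffer and again after 15 min with 500 uM ATP at 22 °C. Five such cycles were run, with NaOH stripping and re-annealing between them, and clusters outside 100-1000 RFU were excluded.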
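Note: ATP exposure 15 min at 22 °C before imaging.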

| Sequence | switch fluorescence ratio |
| --- | --- |
| TTTGAGGCCA | 1.04 ± 0.061 |
| TTCGTGTCAG | 0.995 ± 0.023 |
| TAAAATTTTA | 0.988 ± 0.023 |
| GGAATTGGAT | 1 ± 0.025 |
| AGGGACAGAC | 1.17 ± 0.054 |
| GTGGGGTAGA | 1.05 ± 0.021 |
| GTAGTAGCGG | 1.02 ± 0.025 |
| AAAGATTGAC | 1.01 ± 0.08 |
| CGGTCGCCGG | 1.01 ± 0.02 |
| GGGAAGTATA | 1 ± 0.027 |
| CTACTTATTT | 1.02 ± 0.024 |
| TATCCAGGGG | 2.063 ± 0.0021 |
| TTTAGAGCTT | 1.02 ± 0.024 |
| GCGACGGGT | 1.02 ± 0.06 |
| CCGACGTAGG | 2.494 ± 0.017 |
| CGGAGTTATC | 1.35 ± 0.2 |
| AATACGGCAC | 1.852 ± 0.006 |
| GTTATGGTTT | 0.986 ± 0.031 |
| TTTCTGTAAG | 1.01 ± 0.036 |
| CGGGGCACCG | 0.9868 ± 0.0032 |
| TTACTCATTT | 1.017 ± 0.0018 |
| CCGTTAGCGG | 1.1074 ± 0.00044 |

| Sequence | switch fluorescence ratio |
| --- | --- |
| GAGAGGGGAT | 1.03 ± 0.036 |
| TTACTTTGGA | 1.03 ± 0.023 |
| TGGCTCTGAG | 0.9973 ± 0.0028 |
| AAGGTCGGGA | 0.9966 ± 0.0087 |
| AAGCCCGACG | 1.13 ± 0.11 |
| ATAAAATAAA | 0.976 ± 0.031 |
| ATTGAACCGG | 1.04 ± 0.012 |
| ATCACGTGAT | 1.01 ± 0.023 |
| AGTTGGAGGC | 0.9476 ± 0.0088 |
| ATACGCGGGC | 1.27 ± 0.038 |
| TGGTCAACTA | 1 ± 0.02 |
| ACAACAGCAC | 1.18 ± 0.03 |
| TATATATGAC | 1.01 ± 0.022 |
| CCAATTGCAT | 1.12 ± 0.021 |
| GGGGTGCGGG | 0.99 ± 0.032 |
| GCTGGGGCTT | 0.991 ± 0.014 |
| CGATGGAGAG | 1.0297 ± 0.00016 |
| GGGGTCGCTG | 0.965 ± 0.013 |
| TAAAATTCGA | 0.9784 ± 0.0059 |
| CTTGTACTAA | 1.012 ± 0.0062 |
| TACGTAGGGT | 1.19 ± 0.28 |
| TCGGTATTTT | 1.01 ± 0.026 |

| Sequence | switch fluorescence ratio |
| --- | --- |
| TAGTTTGGGC | 0.983 ± 0.019 |
| ATTATTATGC | 0.97 ± 0.025 |
| GAGGTGGGCT | 1 ± 0.067 |
| GTTGGTTGGG | 0.975 ± 0.023 |
| ACAGGGGTAT | 1.02 ± 0.066 |
| AATAAGAGTT | 0.995 ± 0.05 |
| CATACCGGGG | 1.025 ± 0.0049 |
| GCTGAGTAAC | 0.99 ± 0.0017 |
| AGTGAGGGTA | 0.983 ± 0.031 |
| GGAAAGAAGG | 1 ± 0.032 |
| CCATTCATTT | 0.991 ± 0.02 |
| TTAAAGCCGG | 0.966 ± 0.061 |
| TGATCTTGTT | 0.9619 ± 0.0037 |
| AGCAATGCTT | 3.09 ± 0.29 |
| CATAGCCTAA | 1.008 ± 0.0031 |
| TGCTCGGCGT | 0.99846 ± 0.00041 |
| AAGGTCAAGC | 1 ± 0.063 |
| TGGAGTATTT | 0.9525 ± 0.005 |
| CAGCTGGGAG | 1.03 ± 0.011 |
| GGGGATTGCT | 0.986 ± 0.025 |
| ATTTGCAGCA | 1.02 ± 0.014 |
| GTACTAGTAT | 0.977 ± 0.023 |

| Sequence | switch fluorescence ratio |
| --- | --- |
| CTCCAAAGCG | 1.19 ± 0.032 |
| TTTTGGAAGC | 1.03 ± 0.034 |
| TGCAATTAAC | 3.51 ± 0.17 |
| TTATTTTGGG | 0.99 ± 0.037 |
| TGATAATTTA | 1.06 ± 0.016 |
| TGGGTTTCAG | 0.996 ± 0.05 |
| TGCTTTAGCG | 1.0155 ± 0.00011 |
| CGTTTTCTGT | 0.978 ± 0.024 |
| GGGGTGTATA | 1 ± 0.045 |
| GGGTCGGTTT | 1.01 ± 0.019 |
| CCGCTGGGCT | 1.83 ± 0.056 |
| AAACGGATTC | 0.999 ± 0.052 |
| CAATATCCCG | 1.05 ± 0.028 |
| TGAGTACGGG | 0.9844 ± 0.0025 |
| ATCTCTGAAG | 0.995 ± 0.013 |
| GGTTATAGGA | 0.99 ± 0.036 |
| CGTTTAGTCA | 1.01 ± 0.023 |
| TCTAGGGTGC | 1.13 ± 0.042 |
| TTAACGCCGC | 1.13 ± 0.069 |

From the supplement of paper PMC10126150
